# Measurements taken from patent US20110165660A1, “ENGINEERED MICROORGANISMS WITH ENHANCED FERMENTATION ACTIVITY” (VERDEZYNE, INC., priority 2009, published 2011).
# Legend:
# [1] = test system: xylose isomerase activity; assay: Heterologous xylose isomerase expression in engineered yeast (active yes/no); conditions: xylose isomerase of the donor organism expressed in engineered yeast (S. cerevisiae)
# [2] = test system: xylose; assay: In vitro xylose isomerase activity assay on soluble whole cell extract (sorbitol dehydrogenase/NADH coupled, A340; Km, specific activity); assay type: biochemical, Saccharomyces cerevisiae
# Procedure: […] Louis, Mo.), and about 2 U sorbitol dehydrogenase (Roche) at about 30° C. […] A Beckman DU-800 was utilized with an Enzyme Mechanism software package (Beckman Coulter, Inc.), and the change in the A340 was monitored for 2-3 minutes.
# (§1) Approximately 20 μg of soluble whole cell extract from each transformed cell line, prepared using Y-PER plus reagent as described above, was incubated in a solution containing about 100 mM Tris, pH 7.5, 10 mM MgCl ? 2, 0.15 mM NADH (Sigma, St. Louis, Mo.), and 2 U Sorbitol Dehydrogenase (SDH) (Roche, Indianapolis, Ind.) at about 30° C. […] A Beckman DU-800 spectrophotometer was utilized with an Enzyme Mechanism software package (Beckman Coulter, Inc, Brea, Calif.), and the change in the A340 was monitored for 2-3 minutes.
# as §1, with “line was” for “line,”, “above” for “above,”, “MgCl2,” for “MgCl ? 2,”, “sorbitol dehydrogenase” for “Sorbitol Dehydrogenase”
# as §1, with “line was” for “line,”, “above” for “above,”
# [3] = Western blot (anti-6xHis) of EDD and EDA expression in yeast, soluble/insoluble extract; parameters: species or system Saccharomyces cerevisiae; conditions: C-terminal HIS tag, S. cerevisiae BY4742; total crude and solubilized extract; FIGS. 13A and 13B
# Procedure: Transformation of the p426GPD plasmids containing an edd or an eda variant gene into yeast strain BY4742 was accomplished using the Zymo Research frozen-EZ yeast transformation II kit according to the manufacturer's protocol. The transformed BY4742 cells were selected by growth on a synthetic dextrose medium (SD) (0.67% yeast nitrogen base-2% dextrose) containing complete amino acids minus uracil (Krackeler Scientific Inc). Plates were incubated at about 30° C. for about 48 hours. Transformant colonies for each edd and eda variant were inoculated onto 5 ml of SD minus uracil medium and cells were grown at about 30° C. and shaken at about 250 rpm for about 24 hours. Cells were harvested by centrifugation at 1000×g for about 5 minutes, after which protein crude extract was prepared with Y-PER Plus (Thermo Scientific) according to the manufacturer's instructions. Whole cell extract protein concentrations were determined using the Coomassie Plus Protein Assay (Thermo Scientific) according to the manufacturer's directions. For each edd and eda variant His-tagged construct, about 10 μg of soluble and insoluble fractions were loaded on 4-12% NuPAGE Novex Bis-Tris protein gels (Invitrogen) and proteins were analyzed by western using anti-(H is)6 (SEQ ID NO: 138) mouse monoclonal antibody (Abcam) and HRP-conjugated secondary antibody (Abcam). […]
# [4] = test system: 6-phosphogluconate; assay: EDA activity assay: S. cerevisiae EDA extracts with saturating E. coli EDD extract, LDH/NADH coupled; assay type: biochemical, Saccharomyces cerevisiae
# Procedure: EDA extracts were prepared using the following protocol.
# Grow 5 ml LB-Kan preps of BF1055 (BL21/DE3 with pET26b empty vector) and BF1706 (BL21DE3 with pET26b+E. coli EDD).
# Grow 50 ml LB-Kan prep of BF1055, 2% (v/v) inoculate.
# Grow 50 ml prep of BF1706 using Novagen's Overnight Express (46.45 ml LB-Kan, 1 ml solution 1, 2.5 ml solution 2, 50 μl solution 3, 5 μl of 1M MnCl2, 50 μl of 0.5 M FeCl2), 2% (v/v) inoculate.
# Inoculate to OD600 of 0.2.
# EDD extractions (adapted from Chemyan et al, Protein Science 16:2368-2377, 2007): • 1) Pellet cells in 50 ml conical tubes, 4° C., 3,000 rpm, 10 mins, discard supernatant. • 2) Resuspend in 2 ml degassed PDGH buffer (20 mM MES pH 6.5, 30 mM NaCl, 5 mM MnCl2, 0.5 mM FeCl2, 10 mM 2-mercaptoethanol, 10 mM cysteine, sparged with nitrogen gas). Move to hungate tube. • 3) Add 0.1% Triton X-100, 10 ng/ml DNase, 10 μg/ml PMSF, 10 μg/ml TAME (Nα-(p-toluene sulfonyl)-L-arginine methyl ester), 100 μg/ml lysozyme. • 4) Sparge hungate tube with nitrogen gas, cap and seal. […]
# Each reaction contains 50 mM Tris-HCl, pH 7, 10 mM MgCl2, 0.15 mM NADH, 15 μg LDH, saturating amounts of EDD determined empirically (usually ˜100 μg), 1-50 μg EDA (depending on level of activity), and 1 mM 6-phosphogluconate. Reactions are started by the addition of 6-phosphogluconate and monitored for 5 mins at 30° C.
Molecule,Active? (yes/no) [1],expression and solubility (western) [3],also measured
Piromyces: xylose isomerase from Piromyces strain E2 (SEQ ID NO: 35),Yes,–,"Specific Activity ([2]; soluble whole cell extract, pH 7.5, 30° C.): 2.02 µmol/min/mg"
"PAO1 EDD: phosphogluconate dehydratase (edd) from P. aeruginosa PAO1 (SEQ ID NO: 70) (protein, listed as Pseudomonas aeruginosa) MHPRVLEVTRRIQARSAATRQRYLEMVRAAASKGPHRGTLPCGNLAHGVAACGESDKQTLRLMNQANVAIVSAYNDMLSAHQPFERFPGLIKQALHEIGSVGQFAGGVPAMCDGVTQGEPGMELSLASRDVIAMSTAIALSHNMFDAALCLGVCDKIVPGLLIGSLRFGHLPTVFVPAGPMPTGISNKEKAAVRQLFAEGKATREELLASEMASYHAPGTCTFYGTANTNQLLVEVMGLHLPGASFVNPNTPLRDELTREAARQASRLTPENGNYVPMAEIVDEKAIVNSVVALLATGGSTNHTLHLLAIAQAAGIQLTWQDMSELSHVVPTLARIYPNGQADINHFQAAGGMSFLIRQLLDGGLLHEDVQTVAGPGLRRYTREPFLEDGRLVWREGPERSLDEAILRPLDKPFSAEGGLRLMEGNLGRGVMKVSAVAPEHQVVEAPVRIFHDQASLAAAFKAGELERDLVAVVRFQGPRANGMPELHKLTPFLGVLQDRGFKVALVTDGRMSGASGKVPAAIHVSPEAIAGGPLARLRDGDRVRVDGVNGELRVLVDDAEWQARSLEPAPQDGNLGCGRELFAFMRNAMSSAEEGACSFTESLNGWR",–,expressed and soluble,–
"Arabidopsis thaliana: xylose isomerase of this donor organism expressed in S. cerevisiae (protein, UniProt Q9FKK7 1-477, looked up) Xylose isomerase: MKKVEFFMLLLCFIAASSLVSADPPTCPADLGGKCSDSDDWQGDFFPEIPKIKYEGPSSKNPLAYRWYNAEEEILGKKMKDWFRFSVAFWHTFRGTGGDPFGAATKYWPWEDGTNSVSMAKRRMRANFEFLKKLGVDWWCFHDRDIAPDGTTLEESNKNLDEVIELAKELQKGSKIKPLWGTAQLFLHPRYMHGGATSSEVGVYAYAAAQVKKAMEVTHYLGGENYVFWGGREGYQTLLNTDMGRELDHLARFFEAAVAYKKKIGFKGTLLIEPKPQEPTKHQYDWDAATAANFLRKYGLIDEFKLNIECNHATLSGHTCHHELETARINGLLGNIDANTGDAQTGWDTDQFLTDVGEATMVMMSVIKNGGIAPGGFNFDAKLRRESTDVEDLFIAHISGMDTMARGLRNAVKILEEGSLSELVRKRYATWDSELGKQIEEGKADFEYLEKKAKEFGEPKVSSAKQELAEMIFQSAM",No,–,–
"E. coli EDA: 2-keto-3-deoxygluconate-6-phosphate aldolase (eda) from E. coli expressed in yeast (protein, UniProt P0A955 1-213, looked up) KHG/KDPG aldolase: MKNWKTSAESILTTGPVVPVIVVKKLEHAVPMAKALVAGGVRVLEVTLRTECAVDAIRAIAKEVPEAIVGAGTVLNPQQLAEVTEAGAQFAISPGLTEPLLKAATEGTIPLIPGISTVSELMLGMDYGLKEFKFFPAEANGGVKALQAIAGPFSQVRFCPTGGISPANYRDYLALKSVLCIGGSWLVPADALEAGDYDRITKLAREAVEGAKL",–,expressed and soluble,"EDA activity relative to the EDA from P. aeruginosa ([4]; EDA expressed in S. cerevisiae, saturating E. coli EDD): approximately 16 fold; EDA activity ranking ([4]; repeat: 100 μg EDD and 25 μg EDA cell lysates (5 μg E. coli EDA), FIG. 24): most active"
Pseudomonas syringae: xylose isomerase of this donor organism expressed in S. cerevisiae (protein) MHPRVLEVTERLIARSRDTRQRYLQLIRGAASDGPMRGKLQCANFAHGVAACGPEDKQSLRLMNAANVAIVSSYNEMLSAHQPYEHFPAQIKQALRDIGSVGQFAGGVPAMCDGVTQGEPGMELAIASREVIAMSTAIALSHNMFDAAMMLGICDKIVPGLMMGALRFGHLPTIFVPGGPMVSGISNKEKADVRQRYAEGKASREELLDSEMKSYHGPGTCTFYGTANTNQLVMEVMGMHLPGASFVNPYTPLRDALTAEAARQVTRLTMQSGSFMPIGEIVDERSLVNSIVALHATGGSTNHTLHMPAIAQAAGIQLTWQDMADLSEVVP,No,–,–
"R. flavefaciens, FD-1 XI: xylose isomerase from R. flavefaciens FD-1 (SEQ ID NO: 110) expressed in S. cerevisiae (protein, listed as Ruminococcus flavefaciens) MEFFKNISKIPYEGKDSTNPLAFKYYNPDEVIDGKKMRDIMKFALSWWHTMGGDGTDMFGCGTADKTWGENDPAARAKAKVDAAFEIMQKLSIDYFCFHDRDLSPEYGSLKDTNAQLDIVTDYIKAKQAETGLKCLWGTAKCFDHPRFMHGAGTSPSADVFAFSAAQIKKALESTVKLGGTGYVFWGGREGYETLLNTNMGLELDNMARLMKMAVEYGRSIGFKGDFYIEPKPKEPTKHQYDFDTATVLGFLRKYGLDKDFKMNIEANHATLAQHTFQHELCVARTNGAFGSIDANQGDPLLGWDTDQFPTNIYDTTMCMYEVIKAGGFTNGGLNFDAKARRGSFTPEDIFYSYIAGMDAFALGYKAASKLIADGRIDSFISDRYASWSEGIGLDIISGKADMAALEKYALEKGEVTDSISSGRQELLESIVNNVIFNL",–,–,"activity (slope) at saturating xylose ([2]; 100 μg total soluble crude extract, 500 mM xylose, FIG. 25): highest activity of the candidates tested; specific activity relative to native XI control ([2]; xylose concentrations between 40 and 500 nM): greater than 2 fold"
